Biological target: Postsynaptic density lattice (PSDL) preparation (OG-11U-IS) (rat)
Test: negative-staining electron microscopy of grid-immobilised structures incubated with polymerizing tubulin; PSDL or PSD immobilised on the Formvar membrane of an EM grid, blocked with NGS and BSA at 0°C and 37°C, placed on a droplet of tubulin (ML116, 2 mg/mL, GTB, 1 mM GTP, 5% glycerol) polymerizing at 37°C; fixed with 1% glutaraldehyde, stained with nano-W

Question: How did the percent of MT ends associated with PSDL and/or PSDL-like structures turn out when “Tubulin MAP-rich, ML116, Cytoskeleton Inc. (from UniProt P02550 1-451) (complex)” was run?
Answer: The percent of MT ends associated with PSDL and/or PSDL-like structures was 30.9%.
